Test results from PMC8247599 (Genes & Development, 2021).

Target: the molecule itself
Assay: crystal structure

B1: Khc^855–941 (domain or fragment)
chain: not shown
  binding result: binds
